We go through nine molecules from US5723307A, “Fluorogenic substrates for assay of angiotensin converting enzyme” (Development Center for Biotechnology, priority 1995, dated 1998).

A short description of series [1]: solubility in aqueous buffer. Format: physicochemical.
The next series relates to ACE. As to conditions: from literature, cited from earlier work; for Km: Ref. [16]-[20].
Substrate in series [2]: NCCCC[C@H](NC(=O)[C@H](Cc1c[nH]c2ccccc12)NC(=O)[C@H](Cc1ccccc1)NC(=O)CCC(=O)NCCNc1cccc2c(S(=O)(=O)O)cccc12)C(=O)O
In words: continuous spectrofluorometric assay of hydrolysis of fluorogenic substrates by ACE (kinetic parameters). The format is biochemical, rabbit. As to conditions: other: 0.05M Hepes buffer pH 8.2, 0.2M NaCl, 1M Na2SO4, Lineweaver-Burk, ex 286 nm, em 360 nm, 37.0 °C. On the procedure:
(§1) Fluorescence data were recorded on a HITACHI Model F2000 fluorescence spectrophotometer (Tokyo, Japan) set at wavelengths of 286 nm (excitation)and 360 nm (emission). The rates of enzymatic hydrolysis of the fluorogenic compounds ES-FWF, ES-FWG, ES-FWH, ES-FWK, ES-FWL and ES-FHW were monitored fluorospectrophotometrically as follows: A solution of ACE was prepared at 1.3×10^-2 units/ml (concentration of enzyme was estimated by using the Bio-Rad protein assay kit with bovine serum albumin as a standard). […] Activity was assayed with hippuryl-L-histidyl-L-leucine as a substrate. One unit of enzyme activity is the amount required to catalyze the formation of 1.0 μmol of hippuric acid per minute (in 50 mM Hepes, pH 8.3, and 0.3M NaCl at 37° C.). For fluorescence measurement, 20 μl of enzyme solution was added to 0.5 ml substrate solution (2×10^-6 -6.5×10^-5 M) in 0.05M Hepes buffer, pH 8.2, containing 0.2M NaCl and 1M Na2 SO4, placed in an optical cell. […] The increase in fluorescence (emission at 360 nm, excitation at 286 nm) with time, in the presence of the enzyme, was recorded continuously. Since the product (and perhaps the substrate as well) is subject to photodecomposition, the slit width of the excitation monochromator must not be too large. Alternatively, the reaction can be monitored automatically by pulse illumination with a time interval of 150, sec, as shown in FIG. 1.
(§2) Dependence of the rate of hydrolysis on substrate concentration was established by initial rate measurements (within the first 10% of hydrolysis). The slope of the line was translated into molar concentrations of the released dipeptides using a calibration curve constructed by fluorescence measurements of solutions containing authentic dipeptide under identical conditions. Km values were calculated by the method of Lineweaver-Burk plots. Five points with approximately equidistance on the 1/[S] abscissa were obtained from the average of two independent measurements. Kinetic parameters for other substrates were also obtained by similar procedures.
(§3) Kinetic parameters of ES-FWF, ES-FWG, ES-FWH, ES-FWK, ES-FWL and ES-FHW for ACE were obtained by continuous spectrofluorometric assay, and the results are listed in Table I. In order to compare the characteristics of the ES-peptides with those of previously reported fluorogenic substrates, the kinetic parameters from literatures were collected for comparison.

Substrate in series [3]: O=C(CCC(=O)N[C@@H](Cc1ccccc1)C(=O)N[C@@H](Cc1c[nH]cn1)C(=O)N[C@@H](Cc1c[nH]c2ccccc12)C(=O)O)NCCNc1cccc2c(S(=O)(=O)O)cccc12
The series is described as above. The format is biochemical, rabbit. As to conditions: other: 0.05M Hepes buffer pH 8.2, 0.2M NaCl, 1M Na2SO4, Lineweaver-Burk, ex 286 nm, em 360 nm, 37.0 °C. As for the experimental part: as §1, §2, §3

Substrate in series [4]: O=C(CCC(=O)N[C@@H](Cc1ccccc1)C(=O)N[C@@H](Cc1c[nH]c2ccccc12)C(=O)N[C@@H](Cc1ccccc1)C(=O)O)NCCNc1cccc2c(S(=O)(=O)O)cccc12
The description is as above. As to conditions: other: 0.05M Hepes buffer pH 8.2, 0.2M NaCl, 1M Na2SO4, Lineweaver-Burk, ex 286 nm, em 360 nm, 37.0 °C. Format: biochemical, rabbit. On the procedure:
as §1, §2, §3

Substrate in series [5]: O=C(CCC(=O)N[C@@H](Cc1ccccc1)C(=O)N[C@@H](Cc1c[nH]c2ccccc12)C(=O)N[C@@H](Cc1c[nH]cn1)C(=O)O)NCCNc1cccc2c(S(=O)(=O)O)cccc12
Described as above. As to conditions: other: 0.05M Hepes buffer pH 8.2, 0.2M NaCl, 1M Na2SO4, Lineweaver-Burk, ex 286 nm, em 360 nm, 37.0 °C. Format: biochemical, rabbit. As for the experimental part:
as §1, §2, §3

Substrate in series [6]: CC(C)C[C@H](NC(=O)[C@H](Cc1c[nH]c2ccccc12)NC(=O)[C@H](Cc1ccccc1)NC(=O)CCC(=O)NCCNc1cccc2c(S(=O)(=O)O)cccc12)C(=O)O
Described as above. The format is biochemical, rabbit. As to conditions: other: 0.05M Hepes buffer pH 8.2, 0.2M NaCl, 1M Na2SO4, Lineweaver-Burk, ex 286 nm, em 360 nm, 37.0 °C. On the procedure: as §1, §2, §3

Substrate in series [7]: O=C(O)CNC(=O)[C@H](Cc1c[nH]c2ccccc12)NC(=O)[C@H](Cc1ccccc1)NC(=O)CCC(=O)NCCNc1cccc2c(S(=O)(=O)O)cccc12
Described as above. The settings on record: other: 0.05M Hepes buffer pH 8.2, 0.2M NaCl, 1M Na2SO4, Lineweaver-Burk, ex 286 nm, em 360 nm, 37.0 °C. The format is biochemical, rabbit. On the procedure:
as §1, §2, §3

Starred links: 1 amine or outer side, 2 acyl side, 3 side chain; linkers in the order of their positions; H or OH if unused. Non-standard residues stand in square brackets, D forms with d. Residues, ends and D or L forms follow the SMILES beside them. *: point of attachment. Phe(4-NO2) = N[C@@H](Cc1ccc([N+](=O)[O-])cc1)C(=O)O; EDANS = O=S(=O)(O)c1cccc2c(NCCN*)cccc12; Suc = O=C(CCC(=O)[*:2])[*:1]; 2Abz = Nc1ccccc1C(=O)O

What is called solubility is how much of the substance goes into solution per volume. In general, Km refers to the concentration of substrate that gives half-maximal velocity. Broadly, the kcat is the number of substrate molecules converted per active site and unit of time at saturation.

As for `CC(C)C[C@H](NC(=O)[C@H](Cc1c[nH]c2ccccc12)NC(=O)[C@H](Cc1ccccc1)NC(=O)CCC(=O)NCCNc1cccc2c(S(=O)(=O)O)cccc12)C(=O)O` [ES-FWL] ({EDANS-Suc}-Phe-Trp-Leu-OH), the solubility in series [1] lay within 7000 to 40000 µg/mL.

`O=C(O)CNC(=O)[C@H](Cc1c[nH]c2ccccc12)NC(=O)[C@H](Cc1ccccc1)NC(=O)CCC(=O)NCCNc1cccc2c(S(=O)(=O)O)cccc12` [ES-FWG] ({EDANS-Suc}-Phe-Trp-Gly-OH) yielded a solubility in series [1] of 7000 to 40000 µg/mL.

Take `O=C(CCC(=O)N[C@@H](Cc1ccccc1)C(=O)N[C@@H](Cc1c[nH]c2ccccc12)C(=O)N[C@@H](Cc1ccccc1)C(=O)O)NCCNc1cccc2c(S(=O)(=O)O)cccc12` [ES-FWF] ({EDANS-Suc}-Phe-Trp-Phe-OH): the solubility in series [1] fell in the range of 7000 to 40000 µg/mL.

For `Nc1ccccc1C(=O)NCC(=O)N[C@@H](Cc1ccc([N+](=O)[O-])cc1)C(=O)N1CCC[C@H]1C(=O)O` [Abz-GF(NO2)P, o-aminobenzoyl-glycyl-p-nitro-L-phenylalanyl-L-proline] (H-[2Abz]G[Phe(4-NO2)]P-OH), in the series on ACE, the Km is 190 µM. In the series on ACE (Ref. [17]-[20]), the kcat is 1.5 s⁻¹ and the kcat/Km is given as 7.7 × 10^3 M^-1 S^-1.

`O=C(CCC(=O)N[C@@H](Cc1ccccc1)C(=O)N[C@@H](Cc1c[nH]cn1)C(=O)N[C@@H](Cc1c[nH]c2ccccc12)C(=O)O)NCCNc1cccc2c(S(=O)(=O)O)cccc12` [ES-FHW] ({EDANS-Suc}-Phe-His-Trp-OH): the solubility in series [1] was 7000 to 40000 µg/mL.

On to `O=C(O)CNC(=O)[C@H](Cc1c[nH]c2ccccc12)NC(=O)CNC(=O)OCc1ccc([N+](=O)[O-])cc1` [Z(NO2)-GWG, p-nitrobenzyloxycarbonylglycyl-L-tryptophyl-glycine], for which the Km in the series on ACE is 900 µM.

Molecule `NCCCC[C@H](NC(=O)[C@H](Cc1c[nH]c2ccccc12)NC(=O)[C@H](Cc1ccccc1)NC(=O)CCC(=O)NCCNc1cccc2c(S(=O)(=O)O)cccc12)C(=O)O` [ES-FWK] ({EDANS-Suc}-Phe-Trp-Lys-OH) showed a solubility in series [1] of 7000 to 40000 µg/mL.

On to `O=C(CCC(=O)N[C@@H](Cc1ccccc1)C(=O)N[C@@H](Cc1c[nH]c2ccccc12)C(=O)N[C@@H](Cc1c[nH]cn1)C(=O)O)NCCNc1cccc2c(S(=O)(=O)O)cccc12` [ES-FWH] ({EDANS-Suc}-Phe-Trp-His-OH), for which, in series [1], the solubility lay in the range of 7000 to 40000 µg/mL.

B1: ACE (from rabbit lung, Sigma Chemical Co.) (Oryctolagus cuniculus) (protein)
chain: TLDPGLLPGDFAADEAGARLFASSYNSSAEQVLFRSTAASWAHDTNITAENARRQEEEALLSQEFAEAWGKKAKELYDPVWQNFTDPELRRIIGAVRTLGPANLPLAKRQQYNSLLSNMSQIYSTGKVCFPNKTASCWSLDPDLNNILASSRSYAMLLFAWEGWHNAVGIPLKPLYQEFTALSNEAYRQDGFSDTGAYWRSWYDSPTFEEDLERIYHQLEPLYLNLHAYVRRVLHRRYGDRYINLRGPIPAHLLGNMWAQSWESIYDMVVPFPDKPNLDVTSTMVQKGWNATHMFRVAEEFFTSLGLLPMPPEFWAESMLEKPEDGREVVCHASAWDFYNRKDFRIKQCTQVTMDQLSTVHHEMGHVQYYLQYKDQPVSLRRANPGFHEAIGDVLALSVSTPAHLHKIGLLDHVTNDTESDINYLLKMALEKIAFLPFGYLVDQWRWGVFSGRTPSSRYNFDWWYLRTKYQGICPPVVRNETHFDAGAKFHIPSVTPYIRYFVSFVLQFQFHQALCMEAGHQGPLHQCDIYQSTRAGAKLRAVLQAGCSRPWQEVLKDMVASDALDAQPLLDYFQPVTQWLQEQNERNGEVLGWPEYQWRPPLPNNYPEGIDLVTDEAEASRFVEEYDRSFQAVWNEYAEANWNYNTNITTEASKILLQKNMQIANHTLTYGNWARRFDVSNFQNATSKRIIKKVQDLQRAVLPVKELEEYNQILLDMETIYSVANVCRVDGSCLQLEPDLTNLMATSRKYDELLWVWTSWRDKVGRAILPYFPKYVEFTNKAARLNGYVDAGDSWRSMYETPTLEQDLERLFQELQPLYLNLHAYVGRALHRHYGAQHINLEGPIPAHLLGNMWAQTWSNIYDLVAPFPSASTMDATEAMIKQGWTPRRMFEEADKFFISLGLLPVPPEFWNKSMLEKPTDGREVVCHASAWDFYNGKDFRIKQCTTVNMEDLVVVHHEMGHIQYFMQYKDLPVALREGANPGFHEAIGDVLALSVSTPKHLHSINLLSSEGGGYEHDINFLMKMALDKIAFIPFSYLVDEWRWRVFDGSITKENYNQEWWSLRLKYQGLCPPAPRSQGDFDPGAKFHIPSSVPYIRYFVSFIIQFQFHEALCKAAGHTGPLHTCDIYQSKEAGKRLADAMKLGYSKPWPEAMKVITGQPNMSASAMMNYFKPLMDWLLTENGRHGEKLGWPQYTWTPNSARSEGSLPDSGRVNFLGMNLDAQQARVGQWVLLFLGVALLLASLGLTQRLFSIRYQSLRQPHHGPQFGSEVELRHS
notes: ACE (from rabbit lung, Sigma Chemical Co.); purchased Sigma Chemical Co; host or cells: rabbit lung (tissue)
As for B1, the Michaelis constant (Km) in series [2] was 24 µM; in series [3] it was 15 µM; in series [4], 4.5 µM; in series [5], 4.9 µM; in series [6] it was 2.7 µM; in series [7], 23 µM. Moreover, the kcat is 3.8 s⁻¹ in series [2]; 2.0 s⁻¹ in series [3]; 2.1 s⁻¹ in series [4]; 0.8 s⁻¹ in series [5]; 0.9 s⁻¹ in series [6]; 2.0 s⁻¹ in series [7]. Moreover, the kcat/Km is reported as 1.6 × 10^5 M^-1 S^-1 in series [2]; 1.3 × 10^5 M^-1 S^-1 in series [3]; 4.6 × 10^5 M^-1 S^-1 in series [4]; 1.7 × 10^5 M^-1 S^-1 in series [5]; 3.2 × 10^5 M^-1 S^-1 in series [6]; 8.9 × 10^4 M^-1 S^-1 in series [7].
